The record followed here is paper PMC6874894.

For this data set, the system named is CTCF. The data set is described as follows: EMSA. A general note: In EMSA bound probe runs differently from free probe, usually more slowly.

Substance 50 bp probe rs150502618-A had a binding signal (% increase in binding vs G allele (N1)) of 15.
Consider 230 bp probe rs150502618-A, for which the binding signal (% increase in binding vs G allele (N3)) was found to be 8.
